From patent US20190307836A1 (Bicycle, published 2019)
Starred links: 1 amine or outer side, 2 acyl side, 3 side chain; linkers in the order of their positions; H or OH if unused. Positions of bridges follow the written chain, without caps; N, C: chain ends. Non-standard residues stand in square brackets, D forms with d. Chains are numbered I, II in the order given. No end group written: not given here. *: point of attachment. TATA = O=C(CC[*:1])N1CN(C(=O)CC[*:2])CN(C(=O)CC[*:3])C1; Dap(PYA) = diaminopropionic acid bearing 4-pentynoyl; 1Nal = N[C@@H](Cc1cccc2ccccc12)C(=O)O; Hyp = O=C(O)[C@@H]1C[C@@H](O)CN1; hArg = N=C(N)NCCCC[C@H](N)C(=O)O; tBuAla = CC(C)(C)C[C@H](N)C(=O)O; Nle = CCCC[C@H](N)C(=O)O; Pent4ynoyl = C#CCCC(=O)*; Dap = NC[C@H](N)C(=O)O; βAla = NCCC(=O)O; Sar = CNCC(=O)O

Key:
[1] = target: CD137 on human PBMC (anti-CD3 stimulated) (human, UniProt Q07011 24-255); assay: cell-based or functional assay
CD137 on human PBMC (anti-CD3 stimulated), sequence (Q07011 24-255): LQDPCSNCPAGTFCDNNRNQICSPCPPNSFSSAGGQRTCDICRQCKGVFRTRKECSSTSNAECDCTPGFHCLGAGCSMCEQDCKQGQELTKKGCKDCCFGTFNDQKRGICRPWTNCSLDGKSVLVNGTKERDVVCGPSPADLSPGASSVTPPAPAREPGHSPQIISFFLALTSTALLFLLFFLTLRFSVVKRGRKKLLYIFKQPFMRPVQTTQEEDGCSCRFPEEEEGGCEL

[2] = target: T1, Recombinant human CD137 (R&D systems) (human, UniProt Q07011 24-186, biotinylated with EZ-Link Sulfo-NHS-LC-LC-Biotin); assay: SPR (Biacore), biotinylated human CD137 on streptavidin chip
T1 construct: Bought protein; also called human CD137 protein; TNFRSF9
Protocol: The protein was desalted to remove uncoupled biotin using spin columns into PBS.
For analysis of peptide binding, a Biacore T200 or a Biacore 3000 instrument was used with a XanTec CMD500D chip. Streptavidin was immobilized on the chip using standard amine-coupling chemistry at 25° C. with HBS-N (10 mM HEPES, 0.15 M NaCl, pH 7.4) as the running buffer. Briefly, the carboxymethyl dextran surface was activated with a 7 min injection of a 1:1 ratio of 0.4 M 1-ethyl-3-(3-dimethylaminopropyl) carbodiimide hydrochloride (EDC)/0.1 M N-hydroxy succinimide (NHS) at a flow rate of 10 μl/min. For capture of streptavidin, the protein was diluted to 0.2 mg/ml in 10 mM sodium acetate (pH 4.5) and captured by injecting 120 μl of onto the activated chip surface. Residual activated groups were blocked with a 7 min injection of 1 M ethanolamine (pH 8.5) and biotinylated CD137 captured to a level of 270-1500 RU. Buffer was changed to PBS/0.05% Tween 20 and a dilution series of the peptides was prepared in this buffer with a final DMSO concentration of 0.5%. The top peptide concentration was 500 nM with 6 further 2-fold or 3-fold dilutions. The SPR analysis was run at 25° C. at a flow rate of 90 μl/min with 60 seconds association and 900 seconds dissociation. After each cycle a regeneration step (10 μl of 10 mM glycine pH 2) was employed. Data were corrected for DMSO excluded volume effects as needed. All data were double-referenced for blank injections and reference surface using standard processing procedures and data processing and kinetic fitting were performed using Scrubber software, version 2.0c (BioLogic Software). Data were fitted using simple 1:1 binding model allowing for mass transport effects where appropriate.

human EphA2 protein = target: T2, human EphA2 protein (human, UniProt P29317 25-534, limits assumed, biotinylated with EZ-Link Sulfo-NHS-LC-Biotin); assay: SPR (Biacore T200), biotinylated human EphA2 on streptavidin chip
T2 construct: Construct not described
T2 sequence (P29317 25-534 limits assumed): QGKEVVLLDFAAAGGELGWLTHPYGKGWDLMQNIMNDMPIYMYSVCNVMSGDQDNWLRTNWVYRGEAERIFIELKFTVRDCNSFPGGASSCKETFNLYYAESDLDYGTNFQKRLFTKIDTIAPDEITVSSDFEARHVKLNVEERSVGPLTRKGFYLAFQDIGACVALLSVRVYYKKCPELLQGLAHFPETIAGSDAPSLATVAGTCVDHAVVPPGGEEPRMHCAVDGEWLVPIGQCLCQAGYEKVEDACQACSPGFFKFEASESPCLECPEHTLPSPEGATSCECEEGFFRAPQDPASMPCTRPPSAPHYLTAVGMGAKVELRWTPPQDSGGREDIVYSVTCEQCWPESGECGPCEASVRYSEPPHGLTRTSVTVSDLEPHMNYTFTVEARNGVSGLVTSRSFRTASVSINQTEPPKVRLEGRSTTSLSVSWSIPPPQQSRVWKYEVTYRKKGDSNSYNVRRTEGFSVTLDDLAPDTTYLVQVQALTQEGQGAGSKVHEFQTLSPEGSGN
Protocol: (§1) Streptavidin was immobilized on the chip using standard amine-coupling chemistry at 25° C. with HBS-N (10 mM HEPES, 0.15 M NaCl, pH 7.4) as the running buffer. Briefly, the carboxymethyl dextran surface was activated with a 7 min injection of a 1:1 ratio of 0.4 M 1-ethyl-3-(3-dimethylaminopropyl) carbodiimide hydrochloride (EDC)/0.1 M N-hydroxy succinimide (NHS) at a flow rate of 10 μl/min. […] Data were corrected for DMSO excluded volume effects. All data were double-referenced for blank injections and reference surface using standard processing procedures and data processing and kinetic fitting were performed using Scrubber software, version 2.0c (BioLogic Software). Data were fitted using simple 1:1 binding model allowing for mass transport effects where appropriate.

[3] = target: CD137 expressed on cells (CHO cells expressing CD137); Jurkat cells of the Promega CD137 luciferase reporter … (UniProt Q07011 24-255, limits assumed); assay: cell-based or functional assay
CD137 expressed on cells (CHO cells expressing CD137); Jurkat cells of the Promega CD137 luciferase reporter …, sequence (Q07011 24-255 limits assumed): as the sequence (Q07011 24-255) above

[4] = target: T3, Human Nectin-4 (residues Gly32-Ser349; NCBI RefSeq: NP_112178.2) with C-terminal FLAG tag (human, UniProt Q96NY8 32-349, randomly biotinylated with EZ-Link Sulfo-NHS-LC-LC-Biotin); assay: SPR (Biacore 3000), biotinylated human Nectin-4 on streptavidin chip
T3 construct: range 32-349; also called human Nectin-4 protein; not shown: C-terminal FLAG tag
T3 sequence (looked up): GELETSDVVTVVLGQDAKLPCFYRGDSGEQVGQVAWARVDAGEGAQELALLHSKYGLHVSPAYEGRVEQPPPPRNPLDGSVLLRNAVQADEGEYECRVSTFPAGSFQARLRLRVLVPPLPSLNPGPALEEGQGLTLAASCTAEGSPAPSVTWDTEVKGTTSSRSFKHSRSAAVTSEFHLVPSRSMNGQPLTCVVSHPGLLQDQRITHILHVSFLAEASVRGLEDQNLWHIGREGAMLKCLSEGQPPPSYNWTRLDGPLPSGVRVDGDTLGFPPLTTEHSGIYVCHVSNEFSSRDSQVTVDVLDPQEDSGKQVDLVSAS
Protocol: as §1, with “[…] Buffer was changed to PBS/0.05% Tween 20 and a dilution series of” for “Briefly,”, “peptides” for “carboxymethyl dextran surface”, “prepared in this buffer” for “activated”, “final DMSO concentration” for “7 min injection”, “0.5%.” for “a 1:1 ratio of 0.4 M 1-ethyl-3-(3-dimethylaminopropyl) carbodiimide hydrochloride (EDC)/0.1 M N-hydroxy succinimide (NHS) at a flow rate of 10 μl/min.”

B1: heterotandem bicyclic peptide complex BCY10572 (peptide)
peptide 1: CP[1Nal][dD]CM[hArg]DWSTP[Hyp]WC
peptide 2: Ac-C[tBuAla]PE[dK](Pent4ynoyl)PYCFADPY[Nle]CA
modifications: linker I:1-I:5-I:15, II:1-II:8-II:15 via TATA; not fully specified (C-terminus, bridges); also: chains joined by PEG5 linker on chain 1 N-terminus, triazole to D-Lys(PYA)
B1 was tested, and the “EC50 (nM), IFN-γ secretion, human PBMC co-culture with 4T1-D02(Nectin4+)” value [1] was 0.25 nM, the “max IFN-γ (pg/ml), human PBMC co-culture with 4T1-D02(Nectin4+)” value [1] was 17900 pg/mL and the Kd [2] was 5 nM.

B2: heterotandem bicyclic peptide complex BCY9758 (peptide)
peptide 1: AXDCXLVNPLCLHPDWXC
peptide 2: ACIEEGQYCFADPYXC
modifications: BCY7732: N-terminal acetyl; Nle12; C-terminal Dap (diaminopropionic acid) bearing the linker; Ci, Cii, Ciii on TATA scaffold; BCY6099: N-terminal [B-Ala]-[Sar10]- (linker on N-terminus); HArg in the A-[HArg]-D extension; HyP1, dD10, HArg12; Ci, Cii, Ciii on TATA scaffold
In the case of B2, the Kd (human EphA2 protein) is reported as 1.5 nM, the “EC50 (nM), CD137 reporter assay, co-culture with SC-OV-3 (EphA2)” value (from here on “EC50 (nM), CD137 reporter assay … (EphA2)”) [3] is reported as 1.2 nM and the “Fold Induction over Background, CD137 reporter assay, co-culture with SC-OV-3 (EphA2)” value (“Fold Induction … with SC-OV-3 (EphA2)” below) [3] is reported as 7 fold. For the same binder, the Kd [2] was 189 nM.

B3: heterotandem bicyclic peptide complex BCY9173 (peptide)
peptide 1: {Pent4ynoyl-βAla}-[Sar][Sar][Sar][Sar][Sar][Sar][Sar][Sar][Sar][Sar]A[hArg]DC[Hyp]LVNPLCLHP[dD]W[hArg]C
peptide 2: Ac-C[tBuAla]PE[dA]PYCFADPY[Nle]C[Dap]
modifications: linker I:14-I:21-I:28, II:1-II:8-II:15 via TATA; numbers in words are those of the source; also: heterotandem: PYA of chain 1 linked via PEG12 to C-terminal Dap of chain 2
In the case of B3, the Kd (human EphA2 protein) is reported as 2.1 nM, the “EC50 (nM), CD137 reporter assay … (EphA2)” value [3] is reported as 0.94 nM and the “Fold Induction … with SC-OV-3 (EphA2)” value [3] is reported as 21 fold. The Kd [2] was 7.98 nM.

B4: heterotandem bicyclic peptide complex BCY7985 (peptide)
peptide 1: AXDCXLVNPLCLHPDWXC
peptide 2: ACIEEGQYCFADPYXC
modifications: BCY7732: N-terminal acetyl; Nle12; C-terminal Dap (diaminopropionic acid) bearing the linker; Ci, Cii, Ciii on TATA scaffold; BCY6169: N-terminal [PYA]-[B-Ala]-[Sar10]- (linker on PYA); HArg in the A-[HArg]-D extension; HyP1, dD10, HArg12; Ci, Cii, Ciii on TATA scaffold
notes: also called EphA2-CD137 heterotandem BCY7985
B4 was tested, and the Kd (human EphA2 protein) was 2 nM, the “EC50 (nM), CD137 reporter assay … (EphA2)” value [3] was 4 nM and the “Fold Induction … with SC-OV-3 (EphA2)” value [3] was 15 fold. It also gave a Kd [2] of 143 nM.

B5: heterotandem bicyclic peptide complex BCY9759 (peptide)
peptide 1: CPXDCMXDWSTPXWC
peptide 2: ACIEEGQYCFADPYXC
modifications: BCY7732: N-terminal acetyl; Nle12; C-terminal Dap (diaminopropionic acid) bearing the linker; Ci, Cii, Ciii on TATA scaffold; BCY8116: linker on N-terminus; 1Nal2, dD3, HArg5, HyP11; Ci, Cii, Ciii on TATA scaffold
For B5, the “EC50 (nM), CD137 reporter assay, co-culture with H1376 (Nectin4)” value [3] was 2.7 nM, the Kd [2] was 44.3 nM and the Kd [4] was 2.14 nM.

B6: heterotandem bicyclic peptide complex BCY8943 (peptide)
peptide 1: VGPCLWDPTPCANLHLXC
peptide 2: ACIEEGQYCFADPYXC
modifications: BCY7732: N-terminal acetyl; Nle12; C-terminal Dap (diaminopropionic acid) bearing the linker; Ci, Cii, Ciii on TATA scaffold; BCY8941: N-terminal [PYA]-[B-Ala]-[Sar10]- (linker on PYA); HArg12; Ci, Cii, Ciii on TATA scaffold
For B6, the “Fold Induction over Background, CD137 reporter assay, co-culture with PC3 (EphA2)” value [3] was < 2 fold and the Kd [2] was 156 nM.

B7: heterotandem bicyclic peptide complex BCY10573 (peptide)
peptide 1: CP[1Nal][dD]CM[hArg]DWSTP[Hyp]WC
peptide 2: Ac-C[tBuAla]PE[dA]PYCFADPY[Nle]C-{Dap(PYA)}
modifications: linker I:1-I:5-I:15, II:1-II:8-II:15 via TATA; not fully specified (C-terminus); also: linker to a chain's N/C-terminus via PEG5
Binder B7 has a Kd [2] of 3.39 nM.
